In patent US20190315854A1 (BEIJING VDJBIO, published 2019):
Positions count from the first letter of the chain named.

T1: sIL-6R (soluble IL-6 receptor; SBH Sciences) (human, UniProt P08887 20-365)
T1 construct: also called human IL-6R
T1 sequence: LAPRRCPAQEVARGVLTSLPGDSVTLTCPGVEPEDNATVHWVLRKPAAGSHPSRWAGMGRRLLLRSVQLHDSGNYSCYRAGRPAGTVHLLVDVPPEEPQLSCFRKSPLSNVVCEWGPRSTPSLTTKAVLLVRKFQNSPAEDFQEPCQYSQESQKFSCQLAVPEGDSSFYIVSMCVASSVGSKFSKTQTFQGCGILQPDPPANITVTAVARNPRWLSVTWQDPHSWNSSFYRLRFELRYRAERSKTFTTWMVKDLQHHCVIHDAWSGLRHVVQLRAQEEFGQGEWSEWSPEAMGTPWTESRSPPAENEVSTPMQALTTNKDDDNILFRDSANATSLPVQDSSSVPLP

B1: 223# (antibody, human IgG1, kappa, V domains shown)
VH: QVQLQESGPGLVRPSQTLSLTCTVSGYSITSDHAWSWVRQPPGRGLEWIGYISYSGMITYNPSLKSRVTMLRDTSKNQFSLRLSSVTAADTAVYYCARCLARMTAIDFWGQGSLVTVSS
VL: DIQMTQSPSSLSASVGDRVTITCRASQDISSYLNWYQQKPGKAPKLLIYYTSRLHSGVPSRFSGSGSGTDFTFTISSLQPEDIATYYCGQGNRLPYTFGQGTKVEIKR
notes: also called Sample # 223
B2: 235# (antibody, human IgG1, kappa, V domains shown)
VH: B1 VH with C99T
VL: B1 VL with G89Q, R93T
B3: 224# (antibody, human IgG1, kappa, V domains shown)
VH: B1 VH with I58T, M103T, I106M, F108Y
VL: B1 VL with G89Q, R93T
B4: 229# (antibody, human IgG1, kappa, V domains shown)
VH: B1 VH with C99S
VL: B1 VL with G89Q, R93T
B5: 232# (antibody, human IgG1, kappa, V domains shown)
VH: B1 VH with C99T, I106M, F108Y
VL: B1 VL with G89Q, R93T
B6: 234# (antibody, human IgG1, kappa, V domains shown)
VH: B1 VH with I58T, I106M, F108Y
VL: B1 VL with G89Q, R93T
B7: 230# (antibody, human IgG1, kappa, V domains shown)
VH: B1 VH with M103T
VL: B1 VL with G89Q, R93T
notes: also called Sample # 230
B8: 233# (antibody, human IgG1, kappa, V domains shown)
VH: B1 VH with C99T, M103T
VL: B1 VL with G89Q, R93T
B9: 227# (antibody, human IgG1, kappa, V domains shown)
VH: B1 VH with C99S, M103A, I106M, F108Y
VL: B1 VL with G89Q, R93T
notes: also called Sample # 227
B10: 236# (antibody, human IgG1, kappa, V domains shown)
VH: B1 VH with I58T, M103A, I106M, F108Y
VL: B1 VL with G89Q, R93T
B11: 226# (antibody, human IgG1, kappa, V domains shown)
VH: B1 VH with M103A, I106M, F108Y
VL: B1 VL with G89Q, R93T
B12: 228# (antibody, human IgG1, kappa, V domains shown)
VH: B1 VH with I58T
VL: B1 VL with G89Q, R93T
notes: also called Sample # 228
B13: 225# (antibody, human IgG1, kappa, V domains shown)
VH: B1 VH with M103T, I106M, F108Y
VL: B1 VL with G89Q, R93T

Molecular target: T1, sIL-6R (soluble IL-6 receptor; SBH …)
Experiment: SPR (BIAcore 3000), antibody on chip, sIL-6R analyte, 25 C
Description: All SPR measurements were performed on a BIAcore 3000 instrument (GE Biosciences, Piscataway, N.J.). BIAcore Software-BIAcore 3000 Control Software V3.2 was used for the operation and control of the BIAcore 3000 instrument. BiaEvaluation Software V4.1 was used for the analysis of SPR data from the BIAcore 3000 instrument and data was plotted using Graph Pad Prism Software Version 5. […] The indicated antibodies were used as the ligand for the construction of the reference channel of the chip. […] Each sample was injected for 3 min at a flow rate of 30 μL/min to allow for binding to chip-bound antibody. Next, binding buffer without analyte was sent over the chip at the same flow rate to allow for dissociation of bound analyte. After 500s, remaining bound analyte was removed by injecting regeneration solution (1M Formic acid). Data was analyzed by using the Kinetics Wizard and the manual fitting programs that are both included with the BiaEvaluation Software V4.1.

B1 and B2 are within 1.5-fold of each other in Kd: 0.368 nM for the first, 0.297 nM for the second.

B3 and B4 are within 1.5-fold of each other in Kd: 0.5 nM for the first, 0.605 nM for the second.

B5 and B6 are within 1.5-fold of each other in Kd: 0.319 nM for the first, 0.37 nM for the second.

B7 and B8 are within 1.5-fold of each other in Kd: 0.448 nM for the first, 0.387 nM for the second.

Compared with B9, B10 is 5.8-fold lower in Kd: 0.477 nM for the first, 0.0829 nM for the second. The second binds more tightly here.

Compared with B11, B12 is 2-fold higher in Kd: 0.102 nM for the first, 0.204 nM for the second. The first binds more tightly here.

B13 was tested, and the Kd was 0.645 nM.

Compared with B1, B2 is higher in “Relative Affinity” value: 8.6 fold vs 25 (Tocilizumab) for the first, 10.6 fold vs 25 (Tocilizumab) for the second.

Compared with B3, B4 is lower in “Relative Affinity” value: 6.3 fold vs 25 (Tocilizumab) for the first, 5.2 fold vs 25 (Tocilizumab) for the second.

Going from B5 to B6, the “Relative Affinity” value falls from 9.9 fold vs 25 (Tocilizumab) to 8.5 fold vs 25 (Tocilizumab).

Going from B7 to B8, the “Relative Affinity” value rises from 7.1 fold vs 25 (Tocilizumab) to 8.2 fold vs 25 (Tocilizumab).

Going from B9 to B10, the “Relative Affinity” value rises from 6.6 fold vs 25 (Tocilizumab) to 38.1 fold vs 25 (Tocilizumab).

Going from B11 to B12, the “Relative Affinity” value falls from 31 fold vs 25 (Tocilizumab) to 15.5 fold vs 25 (Tocilizumab).

With B13 the “Relative Affinity” value was 4.9 fold vs 25 (Tocilizumab).

B1 and B2 are within 1.5-fold of each other in koff: 4.91e-05 s⁻¹ for the first, 3.81e-05 s⁻¹ for the second.

B3 and B4 are within 1.5-fold of each other in koff: 7.99e-05 s⁻¹ for the first, 7.49e-05 s⁻¹ for the second.

B5 and B6 are within 1.5-fold of each other in koff: 4.81e-05 s⁻¹ for the first, 5.69e-05 s⁻¹ for the second.

B7 and B8 are within 1.5-fold of each other in koff: 6.15e-05 s⁻¹ for the first, 5.75e-05 s⁻¹ for the second.

Going from B9 to B10, the koff falls from 6.9e-05 s⁻¹ to 1.53e-05 s⁻¹ (4.5-fold).

First: B11
Second: B12
The koff of the first is 1.9-fold lower: 1.6e-05 s⁻¹ for the first, 3.04e-05 s⁻¹ for the second.

B13 gave a koff of 0.000105 s⁻¹.

B1 and B2 are within 1.5-fold of each other in kon: 133000 M⁻¹ s⁻¹ for the first, 128000 M⁻¹ s⁻¹ for the second.

B3 and B4 are within 1.5-fold of each other in kon: 160000 M⁻¹ s⁻¹ for the first, 124000 M⁻¹ s⁻¹ for the second.

B5 and B6 are within 1.5-fold of each other in kon: 151000 M⁻¹ s⁻¹ for the first, 154000 M⁻¹ s⁻¹ for the second.

B7 and B8 are within 1.5-fold of each other in kon: 137000 M⁻¹ s⁻¹ for the first, 149000 M⁻¹ s⁻¹ for the second.

B9 and B10 are within 1.5-fold of each other in kon: 144000 M⁻¹ s⁻¹ for the first, 185000 M⁻¹ s⁻¹ for the second.

B11 and B12 are within 1.5-fold of each other in kon: 156000 M⁻¹ s⁻¹ for the first, 149000 M⁻¹ s⁻¹ for the second.

In the case of B13, the kon is reported as 163000 M⁻¹ s⁻¹.
